Measurements as given in patent US20220241413A1, “COMBINATION THERAPIES USING CD-38 ANTIBODIES” (Takeda Pharmaceutical Company Limited, priority 2019, published 2022).

Legend:
[1] = Phase 1 study in healthy subjects (AB79-101): pharmacokinetics; format: in vivo, human; settings: single 0.06 mg/kg IV dose
Experimental: (§1) In a phase 1 study in healthy subjects (Study AB79-101), AB79 reduced the levels of peripheral blood and natural killer (NK) cells >90% from baseline in all subjects receiving a single 0.06 mg/kg IV dose of AB79, with a maximum observed concentration (Cmax) of 0.1 μg/mL. (U.S. Pat. No. 8,362,211; U.S. International Patent Application Serial Nos. PCT/US2019/013547 and PCT/US2019/024431). […] Potent reduction of plasmablasts was observed across cohorts of patients in the RRMM trial (Study AB79-1501). […] Consequently, AB79 may be more efficient at eliminating cells expressing high levels of CD38, which could manifest as higher activity on tumor cells (e.g., improved and deeper response rates across a population of patients with myeloma).
(§2) AB79 IV reduced the levels of peripheral blood NK cells >90% from baseline levels in all subjects receiving a single 0.06 mg/kg IV dose, with a Cmax of 0.1 μg/mL. […] As a potent and convenient second-generation anti-CD38 mAb, AB79 SC warranted therapeutic development for the treatment of multiple myeloma (MM).

[2] = system: relapsed/refractory multiple myeloma (RRMM); assay: AB79-1501 study, AB79 plus PomDex combination cohort in RRMM: disease response; format: in vivo, human
Description: This is a multicenter, dose-escalation, open-label, single-arm, Phase 1/2a study designed to determine the safety, tolerability, efficacy, PK, and immunogenicity of AB79 monotherapy in patients with RRMM, and to provide a preliminary assessment of its activity against MM. This study is an amendment to the Phase 1/2a study in RRMM described in Example 1 (a) to allow for an increase in the number of patients enrolled in the Phase 1 study; and (b) to add a cohort of patients to evaluate AB79 combined with the backbone regimen of pomalidomide and dexamethasone (PomDex) in patients with RRMM who have received at least 2 prior therapies and are refractory to the last therapy before study entry. PomDex is approved for this patient population and adding an anti-CD38 monoclonal antibody to it, especially one that is given subcutaneously (SC), could be beneficial and convenient for patients.
The study provides a Confirmation Cohort and a Combination Cohort. […]
The preliminary efficacy of AB79 for MM is evaluated by measuring the ORR (defined as the proportion of patients who achieved a PR or better during study) and the composition of sCR, CR, VGPR, and PR as defined by the IMWG Uniform Response Criteria. MR will also be analyzed. In addition, the efficacy of AB79 is assessed in patients by measuring DOR, PFS, and 1-year OS. TTR will also be measured. […]

[3] = AB79-2001 phase 1b study in SLE: safety; format: in vivo, human; settings: 15 patients, data still blinded (AB79 or placebo)
Description: AB79-2001 is a double-blind, placebo-controlled phase 1b study in patients with moderate to severe SLE. As of the clinical data cutoff, a total of 15 patients had received at least 1 dose of AB79 or placebo. Data is still blinded for this study. No new safety concerns have been identified.

human CD38 = human CD38 (Homo sapiens, UniProt P28907); assay: Biacore affinity to human CD38; format: binding
Description: (§3) Other Morphosys antibodies targeting CD38 are known (see, e.g., WO 2006/125640, which discloses four human antibodies: MOR03077, MOR03079, MOR03080, and MOR03100 and two murine antibodies: OKT10 and IB4). […] Moreover, the prior art antibodies have poor ADCC as well as CDC activity.

[4] = Phase 1 study in healthy subjects (AB79-101): safety; format: in vivo, human
Experimental: as §1, §2

cynomolgus CD38 = cynomolgus CD38 (Macaca fascicularis, UniProt Q5VAN0); assay: Binding to cynomolgus CD38
Description: as §3

Sequence of cynomolgus CD38 (Q5VAN0 whole entry): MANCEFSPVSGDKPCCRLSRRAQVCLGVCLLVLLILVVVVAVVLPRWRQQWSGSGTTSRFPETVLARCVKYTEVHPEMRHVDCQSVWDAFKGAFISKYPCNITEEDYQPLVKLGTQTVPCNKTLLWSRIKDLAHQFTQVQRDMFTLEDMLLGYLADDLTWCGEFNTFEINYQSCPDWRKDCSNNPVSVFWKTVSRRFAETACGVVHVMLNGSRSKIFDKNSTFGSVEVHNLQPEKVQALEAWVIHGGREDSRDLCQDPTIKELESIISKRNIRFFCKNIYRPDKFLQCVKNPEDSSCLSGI

**Q.** With “AB79: anti-CD38 monoclonal IgG1 antibody; heavy chain SEQ ID NO:11, light chain SEQ ID NO:12” as the substance, how does the “maximum observed concentration (Cmax)” value [1] read?
**A.** 100 ng/mL

**Q.** And the “clinical benefit rate (minor response or better)” value [2]?
**A.** 100%

**Q.** What about the “preliminary objective response rate (ORR)” value [2] of the same substance?
**A.** 40%

**Q.** And the “patients with a Grade 3 or higher TEAE or AEs leading to study drug discontinuation” value [3]?
**A.** No patient

**Q.** What about the Kd (human CD38) of the same substance?
**A.** 5.4 nM

**Q.** And the “serious adverse events (SAEs)” value ([4]; 74 healthy subjects, single IV or SC dose escalation)?
**A.** no serious adverse events

**Q.** And the “neutrophil, lymphocyte, monocyte, RBC and platelet counts” value ([4]; healthy subjects, all dose cohorts)?
**A.** remained within normal ranges

**Q.** And the “binding to cynomolgus CD38” value (cynomolgus CD38)?
**A.** binds
